The source of these data is PMC2782731.

For orientation: Km means the substrate concentration at which the rate is half of its maximum. Usually Vmax stands for the top rate of the reaction or transport when substrate is in excess.

Substrate in series [1]: CC1=C(/C=C/C(C)=C/C=C/C(C)=C/C=O)C(C)(C)CC(O)C1
Description: HPLC of 3-hydroxyretinol formed, microsomes of Sf9 cells. The note with it: apparent; 1 mM NADPH; BSA-solubilized substrate; ambient temperature; reduction. In kind it is biochemical, Drosophila melanogaster.

Substrate in series [2]: CC1=C(/C=C/C(C)=C/C=C/C(C)=C/C=O)C(C)(C)CCC1
The series is described as follows: HPLC of retinol formed, microsomes of Sf9 cells. In kind it is biochemical, Drosophila melanogaster. The note with it: apparent; 1 mM NADPH; BSA-solubilized substrate; ambient temperature; reduction.

B1: CG30491 (Drosophila melanogaster) (protein)
chain: MSLFAFLKSRTAFWLSFTGTTTGLAFFVKDLMQGGQFTKETNETGKVFIVTGANTGIGKETVREIAKRGGTVYMACRNLKKCEEAREEIVLETKNKYVYCRQCDLASQESIRHFVAAFKREQEHLHVLINNAGVMRCPRSLTSDGIELQLGVNHMGHFLLTNLLLDLLKKSSPSRIVNVSSLAHTRGEINTGDLNSDKSYDEGKAYSQSKLANVLFTRELAKRLEGTNVTANALHPGVVDTEIIRHMGFFNNFFAGLFVKPLFWPFVKTPRNGAQTSLYVALDPELEKVTGQYFSDCKLKEMAPAATDTQTAKWLWAVSEKWTKPTMIKIQ
On to B1, for which, in series [1], the Km is 3.2 ± 0.3 µM and the Vmax was 0.029 µmol/min/mg. For the same protein, in series [2], the Michaelis constant (Km) came to 0.6 ± 0.1 µM.

B2: CG2070 (Drosophila melanogaster) (protein)
chain: MSAPTDYLFCPLAYGSALSAIGIYLLRQYMQGGQFTTKTNETGRVAIVTGCNQGIGKETVLELARRGATVYMACRDMKKCENARREIIKATNNQNIFARQLDLCSMKSIRNFAAGFKREQNKLHILINNAGIMDCPKMLTEDGFEMQIGVNHMGHFLLTLLLLDVLKSSAPSRVVVLSSIAHRFGRIKRDDLNSEKSYDRKMAYCQSKLANVLFTRELAKRLSGTGVTVNALHPGVVNTELFRNTPFLGSWFGKLLIAPIIWIFIKTARNGAQTTLYAALDPSLEKVSGRYFSDCKQKHVGSAAQYDDDAQFLWAESEKWTGINI
As to B2, in series [2], the Michaelis constant (Km) came out at 0.4 ± 0.1 µM and the Vmax worked out at 0.021 µmol/min/mg.

B3: CG2064 (Drosophila melanogaster) (protein)
chain: MCIFIDCLLSPLIMWPATIGVGIYFLKEYMQGGKFTKDTDETGKVFIVTGANTGIGKETALEIARRGGTVYLACRDMNRCEKARKDIIKETNNQNIFSRELDLSSLDSIRKFVDGFKKEQPKLHVLINNAGVMRCPKTLTKDGYELQLGVNHIGHFLLTNLLLDVLKNSAPSRIVVVSSLAHARGSINVADLNSEKSYDEGLAYSQSKLANVLFTRELAKRLEGSGVTVNALHPGVVDTELARNWAFFQTNLVKFFLKPMIWPLLKTPKSGAQTSIYAALDPELKNISGLYFSDCKPKPVASGALDDKVAKFLWAESEKWTGLDKLEANN
Consider B3, for which, in series [1], the Michaelis-Menten constant (Km) is 2.7 ± 0.9 µM and the maximum rate (Vmax) stood at 0.00045 µmol/min/mg. Besides, in series [2], the Km came out at 4.2 ± 1.2 µM and the maximal velocity (Vmax) worked out at 0.0016 µmol/min/mg.

B4: CG3842 (Drosophila melanogaster) (protein)
chain: MSEAATPPGSVPGTVFPPGFDPTAESVEKTLCFRGFWAWAVLIFLIVLGILLFMWLLRKCIQGPAYRKANRIDGKVVIVTGCNTGIGKETVLELAKRGARVYMACRDPGRCEAARLDIMDRSRNQQLFNRTLDLGSLQSVRNFVERFKAEESRLDILINNAGVMACPRTLTADGFEQQFGVNHLGHFLLTNLLLDRLKHSSPSRIVVVSSAAHLFGRINREDLMSEKNYSKFFGAYSQSKLANILFTLKLSTILKDTGVTVNCCHPGVVRTEINRHFSGPGWMKTALQKGSLYFFKTPKAGAQTQLRLALDPQLEGSTGGYYSDCMRWPLFPWVRNMQTADWLWRESEKLLGLPPLEPPPPVQSPTQNGNGTQNGNGSSSASASASSNNPASREMQSVETVVVNRS
Take B4: in series [1], the Km amounted to 4.1 ± 0.1 µM and the maximum rate (Vmax) was 0.025 µmol/min/mg. Besides, in series [2], the Km was 0.27 ± 0.05 µM and the Vmax was 0.007 µmol/min/mg.

B5: CG2065 (Drosophila melanogaster) (protein)
chain: MQGGQFTKQTDETGKVFIVTGANTGIGKETVLEIAKRGGTVYMACRDMNRCEKARQDIIRETNNQNIFSRELDLSSLESIRKFAAGFKKEQDKLHVLINNAGVMHCPRTLTKDGFEMQLGVNHMGHFLLTHLLLDVLKKTAPSRIVNVSSLVHTQGFIKTADLNSEKSYSRIGAYSQSKLANVLFTRELAKRLEGTGVTTNSLHPGAVDTELSRNWKFLKHPFAQLLLKPLLWVLFKTPRNGAQTTLYAALDPALKDVSGLYFSDCQPKEVSAAAQDDKTGKFLWAESEKWTGVNSTKVD
Regarding B5, in series [1], the Km came out at 4.4 ± 0.6 µM and the maximum rate (Vmax) stood at 0.001 µmol/min/mg. Also, in series [2], the Km was 0.7 ± 0.1 µM and the maximal velocity (Vmax) is 0.0016 µmol/min/mg.
